According to patent publication US20230272056A1 (Merck Sharp & Dohme, published 2023):
Changes are numbered by the printed parent chain. Names and notes keep the numbering of the source.

B1: 82BJN (Fab, V domains shown)
VH: EVQLVQSGAEVKKPGASVKVSCKASGYTFTSYYMNWVRQAPGQGLEWMGRIDPQSGGVKYAQKFQGRATLTVDTSTSTAYMELSRLRSDDTAVYYCARWHYGGQFDVWGQGTLVTVSS
VL: DIQMTQSPSSLSASVGDRVTITCRASQDIYNYLNWYQQKPGKAVKLLIYYTSGLHSGVPSRFSGSGSGTDYTLTISSLQPEDFATYFCQQGDTLPWTFGQGTKLEIKR
notes: also called VH W33Y H35N I58V D100H Y104Q / VL T30Y R53G (82BJN)
B2: 75BJN (Fab, V domains shown)
VH: B1 VH with S31K, Y33D, N35H, S55D, V58F, H100D, Q104Y
VL: B1 VL with Y30F, G53Y, T93E
notes: Label says VL T30Y but the printed LCDR1 reads F at 30; also called VH S31K W33D S55D I58F / VL T30Y R53Y T93E (75BJN)
B3: 73BJN (Fab, V domains shown)
VH: B1 VH with Y33D, N35H, V58I, H100D, Q104Y
VL: B1 VL with G53R
notes: also called VH W33D / VL T30Y (73BJN)
B4: 72BJN (Fab, V domains shown)
VH: B1 VH with S31Q, Y33D, N35H, V58I, W99Y, H100D, Q104Y
VL: B1 VL with G53I
notes: also called VH S31Q W33D W99Y / VL T30Y R53I (72BJN)
B5: 71BJN (Fab, V domains shown)
VH: B1 VH with Y33D, N35H, S55T, G57D, V58I, H100D
VL: B1 VL
notes: also called VH W33D S55T G57D Y104Q / VL T30Y R53G (71BJN)
B6: 81BJN (Fab, V domains shown)
VH: B1 VH with S31E, Y33D, N35H, V58I, K59R, H100D, V107A
VL: B1 VL with G53V
notes: also called VH S31E W33D K59R Y104Q V107A / VL T30Y R53V (81BJN)
B7: 74BJN (Fab, V domains shown)
VH: B1 VH with S31Y, Y33D, M34L, N35H, V58I, H100D, Q104Y
VL: B1 VL with G53R, T93D, L94I
notes: also called VH S31Y W33D M34L / VL T30Y T93D L94I (74BJN)
B8: 68BJN (Fab, V domains shown)
VH: B1 VH with Y33W, N35Q, S55D, G57D, V58I, W99Y, H100D, Q104Y
VL: B1 VL with G53V
notes: also called VH H35Q S55D S57D W99Y / VL T30Y R53V (68BJN)
B9: 77BJN (Fab, V domains shown)
VH: B1 VH with Y33D, N35H, H100D, Q104Y
VL: B1 VL with G53V, T93E
notes: also called VH W33D I58V / VL T30Y R53V T93E (77BJN)
B10: 76BJN (Fab, V domains shown)
VH: B1 VH with S31Y, Y33D, N35H, Q54Y, S55D, G57D, V58I, H100D, Q104Y
VL: B1 VL with G53L, T93E
notes: also called VH S31Y W33D Q54Y S55D G57D / VL T30Y R53L T93E (76BJN)
B11: 80BJN (Fab, V domains shown)
VH: B1 VH with Y33D, N35H, V58I, K59R, H100D
VL: B1 VL with G53I
notes: also called VH W33D K59R Y104Q / VL T30Y R53I (80BJN)
B12: 78BJN (Fab, V domains shown)
VH: B1 VH with Y33D, N35H, V58I, K59R, H100D, Q104Y
VL: B1 VL with G53N, T93E
notes: also called VH W33D K59R / VL T30Y R53N T93E (78BJN)
B13: 79BJN (Fab, V domains shown)
VH: B1 VH with Y33D, N35H, S55D, G57D, H100D, Q104Y
VL: B1 VL with T93E
notes: also called VH W33D S55D S57D I58V / VL T30Y R53G T93E (79BJN)
B14: 16BLM (antibody, human IgG1, kappa, L234A L235A, V domains shown)
VH: B1 VH with Y33D, N35H, V58I, H100D, Q104Y
VL: B1 VL with G53V, H55E, S56T
notes: IgG1 L234A L235A D265S/kappa; also called 79BLH; 52BMD
B15: 07BLM (antibody, human IgG1, kappa, L234A L235A, V domains shown)
VH: B1 VH with Y33D, N35H, V58I, K59R, H100D, Q104Y
VL: B1 VL with N31S, G53N, H55E, S56T
notes: IgG1 L234A L235A D265S/kappa; also called 70BLH; 43BMD
B16: 11BLM (antibody, human IgG1, kappa, L234A L235A, V domains shown)
VH: B1 VH with Y33D, N35H, V58I, K59R, H100D, Q104Y
VL: B1 VL with G53V, H55E, S56T
notes: IgG1 L234A L235A D265S/kappa; also called 74BLH; 47BMD

target: T1, human LAP-TGFB2 Fc fusion (human); assay: SPR
T1 construct: also called human LAP-TGFβ2; LAP-TGFβ isoform 2
Text: (§1) This Example describes the isoform specificity of the yeast display mutants to bind to human LAP-TGFβ isoforms 1, 2, and 3 using surface plasmon resonance. A Series S CM4 sensor chip (GE Healthcare, catalog BR100534) was immobilized with an anti-human Fc capture antibody following the kit protocol (GE Healthcare, catalog BR100839) on a Biacore T200 instrument with 1× HBS-EP+ (Teknova, catalog H8022). […] Binding specificity experiments between human LAP-TGFβ isoforms 2 and 3 and yeast display mutants were performed in 1× HBS-EP+ with 0.1 mg/mL BSA at 25° C. Approximately 20-40 RU amounts of human LAP-TGFβ2 and 3 were captured to the anti-human Fc surface followed by injection of 1000 nM Fab including a negative control 0 nM Fab. The binding data were double referenced by subtraction of signal from a reference (capture surface only) flow cell and the negative control 0 nM Fab injection. Binding rate constants were determined by fitting the data with a 1:1 binding model (GE Healthcare Biacore T200 Evaluation software 3.0).

T1 sequence (chain, as listed by the source limits assumed): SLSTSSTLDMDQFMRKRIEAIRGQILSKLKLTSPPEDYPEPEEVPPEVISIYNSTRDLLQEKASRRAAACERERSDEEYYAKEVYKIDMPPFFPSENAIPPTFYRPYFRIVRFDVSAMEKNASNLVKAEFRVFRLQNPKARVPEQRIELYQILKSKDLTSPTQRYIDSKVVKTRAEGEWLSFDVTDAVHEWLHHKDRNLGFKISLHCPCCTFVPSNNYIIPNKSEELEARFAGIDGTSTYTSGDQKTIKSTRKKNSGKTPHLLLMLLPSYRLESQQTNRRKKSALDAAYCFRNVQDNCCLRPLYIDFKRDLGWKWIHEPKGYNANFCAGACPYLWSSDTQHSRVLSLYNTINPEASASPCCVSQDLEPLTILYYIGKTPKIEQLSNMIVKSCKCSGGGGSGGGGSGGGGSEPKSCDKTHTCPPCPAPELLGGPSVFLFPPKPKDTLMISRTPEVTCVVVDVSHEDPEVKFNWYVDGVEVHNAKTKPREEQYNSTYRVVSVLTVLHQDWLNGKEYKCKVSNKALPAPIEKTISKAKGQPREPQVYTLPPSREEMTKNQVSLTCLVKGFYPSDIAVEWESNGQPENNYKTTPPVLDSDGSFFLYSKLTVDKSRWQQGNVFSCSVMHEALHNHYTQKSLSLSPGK

Row | binding result | Binder
1 | no binding (tested: 1000 nM Fab) | B1
2 | no binding (tested: 1000 nM Fab) | B2
3 | no binding (tested: 1000 nM Fab) | B3
4 | no binding (tested: 1000 nM Fab) | B4
5 | no binding (tested: 1000 nM Fab) | B5
6 | no binding (tested: 1000 nM Fab) | B6
7 | no binding (tested: 1000 nM Fab) | B7
8 | no binding (tested: 1000 nM Fab) | B8
9 | no binding (tested: 1000 nM Fab) | B9
10 | no binding (tested: 1000 nM Fab) | B10
11 | no binding (tested: 1000 nM Fab) | B11
12 | no binding (tested: 1000 nM Fab) | B12
13 | no binding (tested: 1000 nM Fab) | B13

target: T2, human LAP-TGFB3 Fc fusion (human); assay: SPR
T2 construct: also called human LAP-TGFβ3; LAP-TGFβ isoform 3
Text: as §1

T2 sequence (chain, as listed by the source limits assumed): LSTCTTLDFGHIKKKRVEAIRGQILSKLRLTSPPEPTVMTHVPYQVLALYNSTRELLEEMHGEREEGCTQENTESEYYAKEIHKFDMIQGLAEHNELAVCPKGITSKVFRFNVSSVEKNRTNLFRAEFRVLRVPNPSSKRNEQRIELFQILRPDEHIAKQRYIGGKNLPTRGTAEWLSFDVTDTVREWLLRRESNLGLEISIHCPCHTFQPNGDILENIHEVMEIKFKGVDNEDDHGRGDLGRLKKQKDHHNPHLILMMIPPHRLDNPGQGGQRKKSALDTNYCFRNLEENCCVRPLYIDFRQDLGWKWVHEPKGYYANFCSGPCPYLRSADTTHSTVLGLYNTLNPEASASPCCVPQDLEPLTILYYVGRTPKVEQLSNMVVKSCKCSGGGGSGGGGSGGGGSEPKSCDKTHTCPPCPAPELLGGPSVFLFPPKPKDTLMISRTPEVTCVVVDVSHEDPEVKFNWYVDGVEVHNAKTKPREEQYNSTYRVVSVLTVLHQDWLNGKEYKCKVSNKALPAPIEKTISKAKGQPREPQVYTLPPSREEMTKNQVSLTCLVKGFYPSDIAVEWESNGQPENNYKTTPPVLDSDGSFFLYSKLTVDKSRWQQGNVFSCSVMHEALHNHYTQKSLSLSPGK

Row | binding result | Binder
14 | no binding (tested: 1000 nM Fab) | B1
15 | no binding (tested: 1000 nM Fab) | B2
16 | no binding (tested: 1000 nM Fab) | B3
17 | no binding (tested: 1000 nM Fab) | B4
18 | no binding (tested: 1000 nM Fab) | B5
19 | no binding (tested: 1000 nM Fab) | B6
20 | no binding (tested: 1000 nM Fab) | B7
21 | no binding (tested: 1000 nM Fab) | B8
22 | no binding (tested: 1000 nM Fab) | B9
23 | no binding (tested: 1000 nM Fab) | B10
24 | no binding (tested: 1000 nM Fab) | B11
25 | no binding (tested: 1000 nM Fab) | B12
26 | no binding (tested: 1000 nM Fab) | B13

target: human LAP-TGFβ1 expressed on P3U1 cells (human, UniProt P01137 30-390); assay: cell-based or functional assay
Sequence (P01137 30-390): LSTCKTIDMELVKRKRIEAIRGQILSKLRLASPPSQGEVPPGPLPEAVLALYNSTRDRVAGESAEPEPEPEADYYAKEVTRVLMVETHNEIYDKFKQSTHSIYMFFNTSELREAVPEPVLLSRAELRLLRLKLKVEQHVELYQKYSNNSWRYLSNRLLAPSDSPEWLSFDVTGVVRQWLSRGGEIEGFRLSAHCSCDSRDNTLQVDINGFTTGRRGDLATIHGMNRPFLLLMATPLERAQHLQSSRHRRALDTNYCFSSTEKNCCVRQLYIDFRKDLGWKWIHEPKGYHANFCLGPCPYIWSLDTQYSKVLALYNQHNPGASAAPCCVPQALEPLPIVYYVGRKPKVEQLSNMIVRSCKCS

Row | Average EC50 [µg/mL] | ELISA assay 2 EC50 [µg/mL] | ELISA assay #1 EC50 [µg/mL] | Binder
27 | 0.104 | 0.126 | 0.0816 | B14
28 | 0.076 | 0.119 | 0.0332 | B15
29 | 0.083 | 0.112 | 0.0539 | B16

target: T3, human LAP-TGFB1 Fc fusion (human); assay: SPR, antigen-Fc captured, Fab analyte
T3 construct: also called human LAP-TGFβ1-Fc; human LAP-TGFβ-Fc isoform 1
Text: as §1

T3 sequence (chain, as listed by the source limits assumed): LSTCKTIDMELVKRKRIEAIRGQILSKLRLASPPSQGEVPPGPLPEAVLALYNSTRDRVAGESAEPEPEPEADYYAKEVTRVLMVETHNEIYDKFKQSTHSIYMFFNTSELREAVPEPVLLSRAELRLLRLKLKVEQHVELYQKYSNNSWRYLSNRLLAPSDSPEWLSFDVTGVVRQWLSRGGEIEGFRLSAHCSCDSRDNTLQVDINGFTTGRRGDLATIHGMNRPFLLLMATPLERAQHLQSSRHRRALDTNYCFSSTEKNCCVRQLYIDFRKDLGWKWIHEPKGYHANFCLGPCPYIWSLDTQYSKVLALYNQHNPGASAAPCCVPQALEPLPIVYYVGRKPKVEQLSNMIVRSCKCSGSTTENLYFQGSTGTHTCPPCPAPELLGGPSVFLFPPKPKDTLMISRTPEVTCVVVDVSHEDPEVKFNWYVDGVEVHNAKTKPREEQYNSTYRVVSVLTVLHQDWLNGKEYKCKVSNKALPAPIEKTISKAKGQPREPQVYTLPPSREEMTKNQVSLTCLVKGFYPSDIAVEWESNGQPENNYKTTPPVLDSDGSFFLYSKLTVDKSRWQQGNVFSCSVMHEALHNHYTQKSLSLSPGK

Row | Fold improvement in KD [fold] | Kd [nM] | koff [s⁻¹] | kon [M⁻¹ s⁻¹] | Binder
30 | 8610 | 0.00928 | 2.6e-05 | 2.81e+06 | B1
31 | 1180 |  |  |  | B2
32 | 133 | 0.601 | 0.0031 | 5.15e+06 | B3
33 | 130 | 0.615 | 0.00298 | 4.85e+06 | B4
34 | 3200 | 0.0251 | 6.8e-05 | 2.71e+06 | B5
35 | 12700 | 0.00629 | 2.56e-05 | 4.08e+06 | B6
36 | 196 | 0.408 | 0.00181 | 4.45e+06 | B7
37 | 4200 | 0.0191 | 8.34e-05 | 4.36e+06 | B8
38 | 1540 | 0.0517 | 0.00027 | 5.22e+06 | B9
39 | 768 | 0.104 | 0.000186 | 1.8e+06 | B10
40 | 13200 | 0.00607 | 2.52e-05 | 4.15e+06 | B11
41 | 1120 | 0.0713 | 0.000393 | 5.52e+06 | B12
42 | 3630 | 0.022 | 0.000128 | 5.84e+06 | B13

target: T4, human LAP-TGFβ1 (construct not stated) (human, UniProt P01137 30-390); assay: KinExA, mAb as constant binding partner
T4 construct: also called human LAP-TGFβ isoform 1; titrant
Procedure: An orthogonal kinetic exclusion assay (KinExA) method was used in this study to measure the affinities of affinity-matured anti-LAP-TGFβ1 antibodies (referred to as the constant binding partner, CBP) and human LAP-TGFβ1 (referred to as the titrant). To determine the free CBP concentration in solution, biotinylated human LAP-TGFβ1 coated PMMA (Sapidyne, catalog 440176) beads were prepared by first coating with biotin-BSA (ThermoScientific, catalog 29130) followed by streptavidin (Invitrogen, catalog S888), and a final coat with biotinylated human LAP-TGFβ1-Fc.
For association rate analysis, an experimentally optimized constant concentration of CBP and titrant, were mixed 1:1 and free CBP was measured at timed intervals ranging from 15 to 10000 seconds. […] The data were analyzed with KinExA Pro software (version 4.4.26) where the free CBP binding signals were converted into percent free response, plotted against time (seconds) and processed with the n-curve software “Kinetics, Direct” analysis method.
For equilibrium affinity analysis, two experimentally optimized CBP concentrations were combined with 1:2 serially diluted titrant, human LAP-TGFβ1, and incubated at room temperature to achieve equilibrium. […] The data was analyzed with KinExA Pro software (version 4.4.26) where the free CBP binding signals were converted into percent free response and plotted against the titrant concentration series. The equilibrium KD was determined by processing with n-curve software “Equilibrium” analysis method.

T4 sequence (P01137 30-390 limits assumed): as the sequence (P01137 30-390) above

Row | Kd [nM] | koff [s⁻¹] | kon [M⁻¹ s⁻¹] | Binder
43 | 0.00275 | 1.38e-05 | 5.03e+06 | B14
44 | 0.00224 | 2.82e-05 | 1.28e+07 | B15
45 | 0.00133 | 8.14e-06 | 1.63e+07 | B16

target: T3, human LAP-TGFB1 Fc fusion; assay: SPR pH 7.4, antigen captured on Fab 54BLH
Text: (§2) A Series S C1 sensor chip (Cytiva, catalog BR100535) was immobilized with low densities of high affinity Fab 54BLH on a Biacore T200 instrument with 1×HBS-EP+(Teknova, catalog H8022). This surface served as a monovalent capture surface for a low-density layer of heterodimer human LAP-TGFβ1 complex leaving the second binding site exposed for monovalent kinetic binding analysis with both mAbs and Fabs. Immobilized flow cell 1 served as the reference and flow cells 2, 3 and 4 were used to evaluate the binding interaction between human LAP-TGFβ1 and yeast display mutant mAbs and Fabs.
(§3) Approximately 15-25 RU of human LAP-TGFβ1-Fc was captured to the Fab capture surface followed by injection of 1:3 serially diluted Fabs and mAbs from 6 nM to 0.07 nM (Fabs: 54BLH, 55BLH, 60BLH, 63BLH, 64BLH-mAbs: 69BLH, 70BLH) and 1:3 serially diluted Fab and mAbs from 60 nM to 0.74 nM (Fabs: 59BLH, 66BLH, 67BLH—mAbs: 74BLH, 75BLH, 78BLH, 79BLH, 81BLH, 82BLH) including 0 nM. The binding data was double referenced by subtraction of signal from a reference flow cell and the 0 nM injections for evaluation of Fabs and mAbs respectively. Binding rate constants were calculated/determined by fitting the data with a 1:1 binding model (Cytiva Biacore T200 Evaluation software 3.0).

Row | Fab/mAb KD Ratio | Kd [nM] | koff [s⁻¹] | kon [M⁻¹ s⁻¹] | Binder
46 | 1.6 | 0.038 | 0.000552 | 1.44e+07 | B14
47 | 0.3 | 0.047 | 0.000671 | 1.45e+07 | B15
48 | 1.7 | 0.026 | 0.000374 | 1.47e+07 | B16

target: T3, human LAP-TGFB1 Fc fusion; assay: SPR pH 6.0, antigen captured on Fab 54BLH
Text: as §2, §3

Row | Fab/mAb KD Ratio | Kd [nM] | koff [s⁻¹] | kon [M⁻¹ s⁻¹] | Binder
49 | 1.6 | 0.11 | 0.00122 | 1.12e+07 | B14
50 | 2.2 | 0.155 | 0.00131 | 8.47e+06 | B15
51 | 1.3 | 0.133 | 0.000892 | 6.75e+06 | B16
